The data set addresses Q13093. In words: estimated from residual CAM activity after 10 days at 4 C against enzyme concentration (dilution inactivation); self-association.

B1: recombinant lipoprotein-associated phospholipase A2 (rLp-PLA2) expressed in HEK293 cells (protein)
chain: FDWQYINPVAHMKSSAWVNKIQVLMAAASFGQTKIPRGNGPYSVGCTDLMFDHTNKGTFLRLYYPSQDNDRLDTLWIPNKEYFWGLSKFLGTHWLMGNILRLLFGSMTTPANWNSPLRPGEKYPLVVFSHGLGAFRTLYSAIGIDLASHGFIVAAVEHRDRSASATYYFKDQSAAEIGDKSWLYLRTLKQEEETHIRNEQVRQRAKECSQALSLILDIDHGKPVKNALDLKFDMEQLKDSIDREKIAVIGHSFGGATVIQTLSEDQRFRCGIALDAWMFPLGDEVYSRIPQPLFFINSEYFQYPANIIKMKKCYSPDKERKMITIRGSVHQNFADFTFATGKIIGHMLKLKGDIDSNVAIDLSNKASLAFLQKHLGLHKDFDQWDCLIEGDDENLIPGTNINTTNQHIMLQNSSGIEKYN
For B1, the “concentration at which half is monomer and half aggregate or oligomer” value was “At the concentration at 2.5 µg/ml or 53 nM, roughly half of rLp-PLA2 is in monomer and half forms the aggregate or oligomer as estimated”.

Source of the values: patent US20150086999.
